Measured values as given in paper PMC4882581, “Characterisation of assembly and ubiquitylation by the RBCC motif of Trim5α” (Scientific Reports, 2016).

B1: RhT5 1–261dCC (RhT5 1–261Δ155–228), wild type (domain or fragment, Rhesus macaque)
chain: MASGILLNVKEEVTCPICLELLTEPLSLHCGHSFCQACITANHKKSMLYKEGERSCPVCRISYQPENIQPNRHVANIVEKLREVKLSPEEGQKVDHCARHGEKLLLFCQEDSKVICWLCERSQEHRGHHTFLMEEVAQEYHVKLQTALEMLRQKGGDPYMRELISELEHRLQGSMMDLLQGVDGIIKRIEN
notes: Trim5α, Rhesus macaque, RING, L1, Bbox and start of the coiled-coil, residues 1–154; In a monomer-trimer equilibrium (trimer mass printed 67.8 kDa); also called Wt; source: expressed in LB broth with IPTG; purified (amylose resin, on column 3C protease cleavage, anion exchange); not shown: MBP, C-terminal, cleaved
B2: RhT5 94–141 (Trim5α Bbox domain alone, residues 94–141) (domain or fragment, Rhesus macaque, UniProt Q0PF16 94-141, looked up)
chain: VDHCARHGEKLLLFCQEDSKVICWLCERSQEHRGHHTFLMEEVAQEYH
notes: Trim5α, Rhesus macaque, Bbox domain, residues 94–141; Cloned into pET47b (N-terminal His-tag) or pET49b (N-terminal GST-tag); purified by IMAC, so the His-tag vector is surmised; also called RhT5α 94–141; Bbox only construct; source: E. coli BL21(DE3), purified (IMAC, 3C cleavage, anion exchange, SEC); not shown: His-tag, N-terminal, cleaved
B3: RhT5 88–261dCC (wild type) (domain or fragment, Rhesus macaque)
chain: PEEGQKVDHCARHGEKLLLFCQEDSKVICWLCERSQEHRGHHTFLMEEVAQEYHVKLQTALEMLRQKGGDPYMRELISELEHRLQGSMMDLLQGVDGIIKRIEN
notes: Trim5α, Rhesus macaque, Bbox-CC, residues Pro88-Lys154; Trim5α, Rhesus macaque, CC-L2, residues Tyr229-Asn261; In a monomer-trimer equilibrium; Vector pET47b or pET49b; IMAC purification, so the His-tag is surmised; also called RhT5 88–216dCC (as printed once); source: E. coli BL21(DE3), purified (IMAC, 3C cleavage, anion exchange, SEC); not shown: His-tag, N-terminal, cleaved

Columns and labels:
[1] = molecular target: the molecule itself; assay: AUC; sedimentation velocity, c(S) analysis, and isotherm of the weight-averaged S fit to a monomer-trimer model (monomer to trimer, RhT5 1–261dCC); 20 °C; 10 mM Tris/HCl pH 7.8, 150 mM NaCl; 50 krpm (RhT5 94–141, RhT5 88–261dCC) or 38 krpm (RhT5 1–261dCC)
[2] = molecular target: the molecule itself; assay: AUC; multi-speed sedimentation equilibrium; monomer to trimer; three concentrations (0.125, 0.25, 0.5 mg/ml); 14,000, 18,000 and 22,000 rpm; 20 °C; 10 mM Tris/HCl pH 7.8, 150 mM NaCl; fit in SEDPHAT

Protein	stoichiometry N [1]	stoichiometry N [2]
B1	3	
B2	2	
B3		3
